# Target: T1, soluble human FcRn complexed with β2-microglobulin (human, UniProt P61769 21-119, limits assumed)
# T1 construct: also called hFcRn
# Test: Biacore SPR, pH 7.0;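 also: test antibodies captured on a Protein L chip with human FcRn flowed over as analyte, KD obtained as the ratio of dissociation to association rate constants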
row,Binder,Kd
1,"IgG1-F1026 (antibody, EU numbering; copies: 2 + 2) heavy: QVQLQESGPGLVKPSETLSLTCAVSGHSISHDHAWSWVRQPPGEGLEWIGFISYSGITNYNPSLQGRVTISRDNSKNTLYLQMNSLRAEDTAVYYCARSLARTTAMDYWGEGTLVTVSSASTKGPSVFPLAPSSKSTSGGTAALGCLVKDYFPEPVTVSWNSGALTSGVHTFPAVLQSSGLYSLSSVVTVPSSSLGTQTYICNVNHKPSNTKVDKKVEPKSCDKTHTCPPCPAPELLGGPSVFLFPPKPKDTLYISRTPEVTCVVVDVSHEDPEVKFNWYVDGVEVHNAKTKPREEQYNSTYRVVSVLAVLHHDWLNGKEYKCKVSNKALPAPIEKTISKAKGQPREPQVYTLPPSRDELTKNQVSLTCLVKGFYPSDIAVEWESNGQPENNYKTTPPVLDSDGSFFLYSKLTVDKSRWQQGNVFSCSVMHEALHYHVTQKSLSLSP light: not shown",84 nM
2,"IgG1-F1027 (antibody, EU numbering; copies: 2 + 2) heavy: QVQLQESGPGLVKPSETLSLTCAVSGHSISHDHAWSWVRQPPGEGLEWIGFISYSGITNYNPSLQGRVTISRDNSKNTLYLQMNSLRAEDTAVYYCARSLARTTAMDYWGEGTLVTVSSASTKGPSVFPLAPSSKSTSGGTAALGCLVKDYFPEPVTVSWNSGALTSGVHTFPAVLQSSGLYSLSSVVTVPSSSLGTQTYICNVNHKPSNTKVDKKVEPKSCDKTHTCPPCPAPELRGGPKVFLFPPKPKDTLYISRTPEVTCVVVDVSHEDPEVKFNWYVDGVEVHNAKTKPREEQYNSTYRVVSVLAVLHHDWLNGKEYKCKVSNKALPAPIEKTISKAKGQPREPQVYTLPPSRDELTKNQVSLTCLVKGFYPSDIAVEWESNGQPENNYKTTPPVLDSDGSFFLYSKLTVDKSRWQQGNVFSCSVMHEALHYHVTQKSLSLSP light: not shown",86 nM
3,"IgG1-F1028 (antibody, EU numbering; copies: 2 + 2) heavy: QVQLQESGPGLVKPSETLSLTCAVSGHSISHDHAWSWVRQPPGEGLEWIGFISYSGITNYNPSLQGRVTISRDNSKNTLYLQMNSLRAEDTAVYYCARSLARTTAMDYWGEGTLVTVSSASTKGPSVFPLAPSSKSTSGGTAALGCLVKDYFPEPVTVSWNSGALTSGVHTFPAVLQSSGLYSLSSVVTVPSSSLGTQTYICNVNHKPSNTKVDKKVEPKSCDKTHTCPPCPAPELLAGPDVFLFPPKPKDVLYISRTPEVTCVVVDVSHEDPEVKFNWYVDGVEVHNAKTKPREEQYNSTYRVVSVLQVLHADWLNGKEYKCKVSNKALPAPIEKTISKAKGQPREPQVYTLPPSRDELTKNQVSLTCLVKGFYPSDIAVEWESNGQPENNYKTTPPVLDSDGSFFLYSKLTVDKSRWQQGNVFSCSVMHEALHYHVTQKSLSLSP light: not shown",46 nM

# More lines, now with the values ahead:
row,Kd,Binder
1,51 nM,"IgG1-F1029 (antibody, EU numbering; copies: 2 + 2) heavy: QVQLQESGPGLVKPSETLSLTCAVSGHSISHDHAWSWVRQPPGEGLEWIGFISYSGITNYNPSLQGRVTISRDNSKNTLYLQMNSLRAEDTAVYYCARSLARTTAMDYWGEGTLVTVSSASTKGPSVFPLAPSSKSTSGGTAALGCLVKDYFPEPVTVSWNSGALTSGVHTFPAVLQSSGLYSLSSVVTVPSSSLGTQTYICNVNHKPSNTKVDKKVEPKSCDKTHTCPPCPAPELLGGPSVFLFPPKPKDVLYISRTPEVTCVVVDVSHEDPEVKFNWYVDGVEVHNAKTKPREEQYNSTYRVVSVLQVLHADWLNGKEYKCKVSNKALPAPEEKTISKAKGQPREPQVYTLPPSRDELTKNQVSLTCLVKGFYPSDIAVEWESNGQPENNYKTTPPVLDSDGSFFLYSKLTVDKSRWQQGNVFSCSVMHEALHYHVTQKSLSLSP light: not shown"
2,43 nM,"IgG1-F1032 (antibody, EU numbering; copies: 2 + 2) heavy: QVQLQESGPGLVKPSETLSLTCAVSGHSISHDHAWSWVRQPPGEGLEWIGFISYSGITNYNPSLQGRVTISRDNSKNTLYLQMNSLRAEDTAVYYCARSLARTTAMDYWGEGTLVTVSSASTKGPSVFPLAPSSKSTSGGTAALGCLVKDYFPEPVTVSWNSGALTSGVHTFPAVLQSSGLYSLSSVVTVPSSSLGTQTYICNVNHKPSNTKVDKKVEPKSCDKTHTCPPCPAPELLGGDSVFLFPPKPKDVLYISRTPEVTCVVVDVSHEDPEVKFNWYVDGVEVHNAKTKPREEQYNSTYRVVSVLQVLHADWLNGKEYKCKVSGKALPAPIEKTISKAKGQPREPQVYTLPPSRDELTKNQVSLTCLVKGFYPSDIAVEWESNGQPENNYKTTPPVLDSDGSFFLYSKLTVDKSRWQQGNVFSCSVMHEALHYHVTQKSLSLSP light: not shown"

# Reference: patent US20200199241A1 (Chugai, published 2020)
